Consider four molecules from patent US6617117B1, “MAP kinases: polypeptides, polynucleotides and uses thereof” (Medical Research Council, priority 1996, dated 2003).

T1: SAPK4 (Homo sapiens, UniProt O15264)
T1 sequence (O15264 1-365): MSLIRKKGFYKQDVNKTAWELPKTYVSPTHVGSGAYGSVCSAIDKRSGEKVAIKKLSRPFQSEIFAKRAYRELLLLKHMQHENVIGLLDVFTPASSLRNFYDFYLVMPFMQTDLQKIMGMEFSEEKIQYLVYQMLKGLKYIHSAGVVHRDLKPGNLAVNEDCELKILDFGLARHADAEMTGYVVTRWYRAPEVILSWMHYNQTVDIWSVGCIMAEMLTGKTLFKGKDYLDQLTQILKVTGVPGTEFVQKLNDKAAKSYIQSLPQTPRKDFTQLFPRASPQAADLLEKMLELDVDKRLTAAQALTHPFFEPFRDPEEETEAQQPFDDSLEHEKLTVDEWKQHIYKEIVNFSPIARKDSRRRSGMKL

T2: rat SAPK3 (Rattus norvegicus, UniProt Q63538)
T2 construct: made in house; host or cells: E. coli BL21 (DE3)
T2 sequence (Q63538 1-367): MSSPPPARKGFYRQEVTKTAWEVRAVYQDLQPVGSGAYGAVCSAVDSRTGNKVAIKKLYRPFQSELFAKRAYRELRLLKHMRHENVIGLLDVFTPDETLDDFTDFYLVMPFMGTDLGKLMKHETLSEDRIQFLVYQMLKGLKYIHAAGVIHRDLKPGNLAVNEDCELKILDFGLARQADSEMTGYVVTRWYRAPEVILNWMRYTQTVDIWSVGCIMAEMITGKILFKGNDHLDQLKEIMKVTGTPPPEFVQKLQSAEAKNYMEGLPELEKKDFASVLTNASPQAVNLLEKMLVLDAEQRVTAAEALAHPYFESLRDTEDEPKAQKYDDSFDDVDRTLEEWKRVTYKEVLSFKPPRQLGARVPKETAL

B1: SAP-1: transcription factor activation domain linked to GST, kinase substrate (protein)
chain: TPSPPLSSHPDIDTDIDSVASQPMELPENLSLEPKDQDSVLLEKDKVNNSSRSKKPKGLELAPTLVITSSDPSPLGILSPSLPTASLTPAFFSQTPIILTPSPLLSSIHFWSTLSPVAPLSPARLQGANTLFQFPSVLNSHGPFTLSGLDGPSTPGPFSPDLQKT
modifications: left off: a dimerising Fc or GST
B2: MAPKAP-K3: MAP kinase-activated protein kinase-3, GST fusion used as kinase substrate (protein)
chain: MDGETAEEQGGPVPPPVAPGGPGLGGAPGGRREPKKYAVTDDYQLSKQVLGLGVNGKVLECFHRRTGQKCALKLLYDSPKARQEVDHHWQASGGPHIVCILDVYENMHHGKRCLLIIMECMEGGELFSRIQERGDQAFTEREAAEIMRDIGTAIQFLHSHNIAHRDVKPENLLYTSKEKDAVLKLTDFGFAKETTQNALQTPCYTPYYVAPEVLGPEKYDKSCDMWSLGVIMYILLCGFPPFYSNTGQAISPGMKRRIRLGQYGFPNPEWSEVSEDAKQLIRLLLKTDPTERLTITQFMNHPWINQSMVVPQTPLHTARVLQEDKDHWDEVKEEMTSALATMRVDYDQVKIKDLKTSNNRLLNKRRKKQAGSSSASQGCNNQ
modifications: left off: a dimerising Fc or GST
B3: ATF2: transcription factor activation domain linked to GST, kinase substrate (protein)
chain: MSDDKPFLCTAPGCGQRFTNEDHLAVHKHKHEMTLKFGPARNDSVIVADQTPTPTRFLKNCEEVGLFNELASPFENEF
modifications: left off: a dimerising Fc or GST
B4: c-Jun: transcription factor activation domain linked to GST, kinase substrate (protein)
chain: MTAKMETTFYDDALNASFLPSESGPYGYSNPKILKQSMTLNLADPVGSLKPHLRAKNSDLLTSPDVGLLKLASPELERLIIQSSNGHITTTPTPTQFLCPKNVTDEQEGFAEGFVRALAELHSQNTLPSVTSAAQPVNGAGMVAPAVASVAGGSGSGGFSASLHSEPPVYANLSNFNPGALSSGGGAPSYGAAG
modifications: left off: a dimerising Fc or GST

T5 sequence (P47812 whole entry): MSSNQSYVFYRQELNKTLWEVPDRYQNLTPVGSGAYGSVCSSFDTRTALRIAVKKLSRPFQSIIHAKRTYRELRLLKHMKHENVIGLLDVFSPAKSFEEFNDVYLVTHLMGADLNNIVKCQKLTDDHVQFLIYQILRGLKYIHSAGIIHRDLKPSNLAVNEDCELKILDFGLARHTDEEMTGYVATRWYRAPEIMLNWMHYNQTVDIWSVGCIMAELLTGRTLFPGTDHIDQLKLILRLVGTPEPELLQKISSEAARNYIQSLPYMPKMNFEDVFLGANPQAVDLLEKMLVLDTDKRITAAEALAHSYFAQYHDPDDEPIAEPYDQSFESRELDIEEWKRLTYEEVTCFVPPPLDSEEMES

For the first test, the target named is T3, human SAPK2b (Homo sapiens, UniProt Q15759).
T3 construct: a number of SAPK2b clones, some of which were full-length; made in house; host or cells: E. coli BL21(DE3)
T3 sequence (Q15759 whole entry): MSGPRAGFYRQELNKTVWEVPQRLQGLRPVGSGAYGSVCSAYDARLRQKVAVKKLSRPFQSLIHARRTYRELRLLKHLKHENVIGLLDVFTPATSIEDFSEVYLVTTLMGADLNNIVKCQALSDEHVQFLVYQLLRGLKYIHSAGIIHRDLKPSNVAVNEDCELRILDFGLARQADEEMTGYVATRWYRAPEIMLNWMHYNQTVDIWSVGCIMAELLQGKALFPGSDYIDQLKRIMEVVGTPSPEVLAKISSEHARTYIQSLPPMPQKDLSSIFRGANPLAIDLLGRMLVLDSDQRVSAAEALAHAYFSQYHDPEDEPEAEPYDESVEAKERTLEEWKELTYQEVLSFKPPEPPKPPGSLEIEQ
Briefly: Substrate specificity: rate of phosphorylation by SAPK2b (Table 1). The settings on record: substrate 1 μm; SAPK 0.15 U/ml; means ± SEM of six determinations. It is filed as biochemical. The procedure:
(§1) Experiments were carried out with the Xenopus homologue of SAPK2a, human SAPK2b and human SAPK4. The SAPKs were activated in vitro (FIG. 7) and phosphorylation of each protein was studied at a SAPK concentration of 0.15 U/ml. The results are presented as means±SEM of six determinations (two separate experiments). The data for rat SAPK3 are taken from Example 4 and Cuenda et al (1997).
B1: the “Rates of phosphorylation relative to MBP, SAPK2b” value was 27 ± 5%.

On to B2, for which the “Rates of phosphorylation relative to MBP, SAPK2b” value was 66 ± 6%.

As to B3, the “Rates of phosphorylation relative to MBP, SAPK2b” value is 62 ± 2%.

In the case of B4, the “Rates of phosphorylation relative to MBP, SAPK2b” value stood at 7 ± 2%.

The next test has as its target T1, SAPK4. The experiment in a line: Substrate specificity: rate of phosphorylation by SAPK4 (Table 1). Type of test: biochemical. The settings on record: substrate 1 μm; SAPK 0.15 U/ml; means ± SEM of six determinations. Further details: made in house; host or cells: E. coli BL21(DE3). The procedure: as §1
SAPK4 is assayed routinely by the phosphorylation of MBP. […] After washing and drying the papers (Alessi et al, 1995 Meth. Enzymol. 255, 279-290) ^32P radioactivity incorporated into MBP is measured.
For the molecule B1, the “Rates of phosphorylation relative to MBP, SAPK4” value was found to be 62 ± 5%.

Consider B2, for which the “Rates of phosphorylation relative to MBP, SAPK4” value worked out at 18 ± 2%.

As to B3, the “Rates of phosphorylation relative to MBP, SAPK4” value was 130 ± 2%.

In the case of B4, the “Rates of phosphorylation relative to MBP, SAPK4” value came to 6 ± 2%.

For the next test, the target named is T2, rat SAPK3. Briefly: Substrate specificity: rate of phosphorylation by SAPK3 (Tables 1 and 2). Type of test: biochemical. As to conditions: substrate 1 μM; SAPK 0.1 U/ml. The procedure:
as §1
(§2) Protein kinase assays. SAPK3 was assayed routinely by the phosphorylation of MBP. […] After 20 min at 30° C.
(§3) Table 2. Comparison of substrate specificities of SAPK2 and SAPK3. SAPK2 and SAPK3 were activated in vitro (FIG. 15) and phosphorylation of each protein studied at a SAPK concentration of 0.1 U/ml.
As for B1, the “Rate of phosphorylation relative to MBP, SAPK3” value came to 108 ± 15.

For B3, the “Rate of phosphorylation relative to MBP, SAPK3” value is on record as 107 ± 20.

As to B4, the “Rate of phosphorylation relative to MBP, SAPK3” value is given as 2 ± 1.

Staying with this test, now noted: substrate 1 μm; rat SAPK3 data taken from Example 4 and Cuenda et al (1997).
Take B1: the “Rates of phosphorylation relative to MBP, SAPK3” value was 108 ± 15%.

In the case of B2, the “Rates of phosphorylation relative to MBP, SAPK3” value is listed as 20 ± 6%.

In the case of B3, the “Rates of phosphorylation relative to MBP, SAPK3” value worked out at 107 ± 20%.

For the molecule B4, the “Rates of phosphorylation relative to MBP, SAPK3” value was 2 ± 1%.

The target of the next test is T4, SAPK2 (Xenopus homologue) (Xenopus laevis, UniProt P47812).
T4 construct: made in house; host or cells: E. coli
T4 sequence (P47812 whole entry): as the sequence (P47812 whole entry) above
The experiment in a line: Substrate specificity: rate of phosphorylation by SAPK2 (Table 2). It is filed as biochemical. As to conditions: substrate 1 μM; SAPK 0.1 U/ml. The protocol:
as §2, §3
On to B1, for which the “Rate of phosphorylation relative to MBP, SAPK2” value worked out at 55 ± 13.

Consider B3, for which the “Rate of phosphorylation relative to MBP, SAPK2” value amounted to 86 ± 20.

As to B4, the “Rate of phosphorylation relative to MBP, SAPK2” value is listed as 2 ± 1.

Another test has as its target T5, Xenopus homologue of SAPK2a (Xenopus laevis, UniProt P47812).
T5 construct: made in house; host or cells: E. coli
Briefly: Substrate specificity: rate of phosphorylation by SAPK2a (Table 1). It is filed as biochemical. As to conditions: substrate 1 μm; SAPK 0.15 U/ml; means ± SEM of six determinations. The protocol:
as §1
As for B1, the “Rates of phosphorylation relative to MBP, SAPK2a” value is given as 25 ± 1%.

Take B2: the “Rates of phosphorylation relative to MBP, SAPK2a” value came out at 87 ± 10%.

In the case of B3, the “Rates of phosphorylation relative to MBP, SAPK2a” value worked out at 40 ± 2%.

Consider B4, for which the “Rates of phosphorylation relative to MBP, SAPK2a” value amounted to 4 ± 1%.
